B1: Alanine--glyoxylate aminotransferase, P21549 (parent)
chain: MASHKLLVTPPKALLKPLSIPNQLLLGPGPSNLPPRIMAAGGLQMIGSMSKDMYQIMDEIKEGIQYVFQTRNPLTLVISGSGHCALEAALVNVLEPGDSFLVGANGIWGQRAVDIGERIGARVHPMTKDPGGHYTLQEVEEGLAQHKPVLLFLTHGESSTGVLQPLDGFGELCHRYKCLLLVDSVASLGGTPLYMDRQGIDILYSGSQKALNAPPGTSLISFSDKAKKKMYSRKTKPFSFYLDIKWLANFWGCDDQPRMYHHTIPVISLYSLRESLALIAEQGLENSWRQHREAAAYLHGRLQALGLQLFVKDPALRLPTVTTVAVPAGYDWRDIVSYVIDHFDIEIMGGLGPSTGKVLRIGLLGCNATRENVDRVTEALRAALQHCPKKKL

The data set covers variants of B1. As to conditions: Homo sapiens; pH 7.4; Thermal; DSC; Hepes 20 mM; NaCl 200 mM; transition: 2; reversible: No; structure 1H0C; whole UniProt chain shown.

V113A: the melting temperature (Tm) is 83.2 °C; the “change of melting temperature, mutant - wild type (higher = more stable)” value turned out to be 13.2 °C; the “unfolding enthalpy (calorimetric)” value came out at 502 kcal/mol.
Turning to I340M, the Tm came to 84.1 °C; the “change of melting temperature, mutant - wild type (higher = more stable)” value was determined as 14.1 °C; the “unfolding enthalpy (calorimetric)” value is 530 kcal/mol.
On the same counts, the results for D52E I340M are 86.9 °C, 16.9 °C and 573 kcal/mol.

For orientation: Tm means the temperature at the midpoint of the melting transition.

Values taken from FireProtDB (doi:10.1016/j.bbapap.2014.10.010).
